From patent US20250041389A1, “ENHANCING ABSORPTION OF DIETARY COMPOUNDS TO PROMOTE HEALTH” (ARIZONA BOARD OF REGENTS ON BEHALF OF THE UNIVERSITY OF …, priority 2023, published 2025)

Tests used:
[1] = Oral gavage of GUSB followed by curcumin in mice; assay of curcumin metabolites in serum and bone; assay type: in vivo, C57BI6 mice; details: after oral administration of GUSB with curcumin; FIG. 1
Source text: Experimental Methods: Administer 140 U/g body weight of GUSB (E. coli-derived [Sigma G840]) orally via gavage (vs vehicle) to 10-week-old male C57BI6 mice.

[2] = Enzymatic activity of orally administered enzyme after passage through proteolytic sections of the GI tract; assay type: in vivo; details: oral administration

B1: GUSB: Beta-glucuronidase enzyme; E. coli-derived [Sigma G840] in Example 1 (protein, UniProt P05804 1-603, looked up)
Beta-glucuronidase: MLRPVETPTREIKKLDGLWAFSLDRENCGIDQRWWESALQESRAIAVPGSFNDQFADADIRNYAGNVWYQREVFIPKGWAGQRIVLRFDAVTHYGKVWVNNQEVMEHQGGYTPFEADVTPYVIAGKSVRITVCVNNELNWQTIPPGMVITDENGKKKQSYFHDFFNYAGIHRSVMLYTTPNTWVDDITVVTHVAQDCNHASVDWQVVANGDVSVELRDADQQVVATGQGTSGTLQVVNPHLWQPGEGYLYELCVTAKSQTECDIYPLRVGIRSVAVKGEQFLINHKPFYFTGFGRHEDADLRGKGFDNVLMVHDHALMDWIGANSYRTSHYPYAEEMLDWADEHGIVVIDETAAVGFNLSLGIGFEAGNKPKELYSEEAVNGETQQAHLQAIKELIARDKNHPSVVMWSIANEPDTRPQGAREYFAPLAEATRKLDPTRPITCVNVMFCDAHTDTISDLFDVLCLNRYYGWYVQSGDLETAEKVLEKELLAWQEKLHQPIIITEYGVDTLAGLHSMYTDMWSEEYQCAWLDMYHRVFDRVSAVVGEQVWNFADFATSQGILRVGGNKKGIFTRDRKPKSAAFLLQKRWTGMNFGEKPQQGGKQ
[1]
  enzyme levels in the body: unchanged
[2]
  enzymatic activity after passing through the proteolytic sections of the GI tract (stomach and duodenum): retain their enzymatic activity
